Values of other authors as cited in paper PMC4103764.

Target: SARS 3C-like protease (SARS coronavirus) (UniProt P0C6X7)
Assay: ITC

SARS 3C-like protease (from UniProt P0C6X7)
Kd: 21.4 µM
